Test results published in paper PMC8584237, “Helicobacter pylori Neutrophil-Activating Protein Directly Interacts with and Activates Toll-like Receptor 2 to Induce the Secretion of Interleukin-8 from Neutrophils and ATRA-Induced Differentiated HL-60 Cells” (International Journal of Molecular Sciences, 2021).

Biological target: T1, Recombinant human TLR2 protein Glu21-Leu590, with a C-terminal 10-His tag (human, UniProt O60603 21-590)
T1 construct: Human Toll-like receptor 2, residues Glu21-Leu590; In the functional rows the TLR2 is the endogenous receptor on neutrophils or ATRA-differentiated HL-60 cells, not this soluble construct; also called TLR2-10xHis; Toll-like receptor 2; source: bought: R&D Systems (Cat. # 2616-TR-050); not shown: His10, C-terminal, kept
T1 sequence (O60603 21-590): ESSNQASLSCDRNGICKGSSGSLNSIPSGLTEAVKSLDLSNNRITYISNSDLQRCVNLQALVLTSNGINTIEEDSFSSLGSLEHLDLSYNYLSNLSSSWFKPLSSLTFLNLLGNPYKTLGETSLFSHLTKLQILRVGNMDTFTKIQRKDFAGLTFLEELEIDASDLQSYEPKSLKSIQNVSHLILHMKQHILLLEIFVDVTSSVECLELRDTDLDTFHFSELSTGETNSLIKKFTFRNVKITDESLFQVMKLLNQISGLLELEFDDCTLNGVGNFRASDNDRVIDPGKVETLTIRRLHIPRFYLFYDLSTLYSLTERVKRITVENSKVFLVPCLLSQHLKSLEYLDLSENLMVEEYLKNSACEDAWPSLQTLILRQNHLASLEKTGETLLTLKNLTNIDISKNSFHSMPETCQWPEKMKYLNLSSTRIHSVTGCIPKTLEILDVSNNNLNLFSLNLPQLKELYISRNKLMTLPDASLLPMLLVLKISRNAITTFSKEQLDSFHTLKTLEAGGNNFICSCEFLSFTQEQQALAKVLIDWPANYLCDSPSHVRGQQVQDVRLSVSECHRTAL
Assay: ELISA; Competitive ELISA: 0.625 μg TLR2-10xHis in 100 µL PBS-T pre-incubated with 0.78125-50 μg Pam3CSK4 or BSA (control), then added to wells coated with 0.05 µg HP-NAP, room temperature 2 h; detected with anti-6x His tag antibody
Conditions: both partners purified

B1: Helicobacter pylori neutrophil-activating protein (natural protein)
chain: MKTFEILKHLQADAIVLFMKVHNFHWNVKGTDFFNVHKATEEIYEEFADMFDDLAERIVQLGHHPLVTLSEAIKLTRVKEETKTSFHSKDIFKEILEDYKYLEKEFKELSNTAEKEGDKVTVTYADDQLAKLQKSIWMLQAHLA
notes: also called HP-NAP; NAP; source: E. coli BL21(DE3) carrying pET42a-NAP, purified (two gel-filtration steps: Sephacryl S-300, Superdex 200; endotoxin removed); copies: 12
B1: binds.
